Experimental data as given in the supplement of paper PMC12338614.
± gives the uncertainty stated by the source.

B1: library; numbered along this chain (parent)
chain: MEVVDPQQLGMFTEGELMSVGMDTFIHRIDSTEVIYQPRRKRAKLIGKYLMGDLLGEGSYGKVKEVLDSETLCRRAVKILKKKKLRRIPNGEANVKKEIQLLRRLRHKNVIQLVDVLYNEEKQKMYMVMEYCVCGMQEMLDSVPEKRFPVCQAHGYFCQLIDGLEYLHSQGIVHKDIKPGNLLLTTGGTLKISDLGVAEALHPFAADDTCRTSQGSPAFQPPEIANGLDTFSGFKVDIWSAGVTLYNITTGLYPFEGDNIYKLFENIGKGSYAIPGDCGPPLSDLLKGMLEYEPAKRFSIRQIRQHSWFRKKHPPAEAPVPIPPSPDTKDRWRSMTVVPYLEDLHGADEDEDLFDIEDDIIYTQDFTVPGQVPEEEASHNGQRRGLPKAVCMNGTEAAQLSTKSRAEGRAPNPARKACSASSKIRRLSACKQQ

Variants of: B1
Assay: STK11 functional score (HeLa growth suppression), rescaled enrichment; synonymous median = 1, nonsense median = 0 (normalised score)
Settings: with HeLa; variant type: missense
Outline: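 The values are functional scores: wild-type-corrected log ratios of post- versus pre-selection abundance, rescaled to synonymous and nonsense medians, merged over codons and replicate transfections, and carrying bootstrapped error. They derive from codon-randomised (POPCode), codon-optimised STK11 libraries that Bxb1 integrated at an AAVS1 landing pad in HeLa, with three transfections for each of three regions. Sequencing of tiled gDNA amplicons ran on NextSeq, at ~2 million reads per tile.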
MEVVDPQQLGMFTEGELMSVGMDTFIHRIDSTEVIYQPRRKRAKLIGKYLMGDLLGEGSYGKVKEVLDSETLCRRAVKILKKKKLRRIPNGEANVKKEIQLLRRLRHKNVIQLVDVLYNEEKQKMYMVMEYCVCGMQEMLDSVPEKRFPVCQAHGYFCQLIDGLEYLHSQGIVHKDIKPGNLLLTTGGTLKISDLGVAEALHPFAADDTCRTSQGSPAFQPPEIANGLDTFSGFKVDIWSAAVTLYNITTGLYPFEGDNIYKLFENIGKGSYAIPGDCGPPLSDLLKGMLEYEPAKRFSIRQIRQHSWFRKKHPPAEAPVPIPPSPDTKDRWRSMTVVPYLEDLHGADEDEDLFDIEDDIIYTQDFTVPGQVPEEEASHNGQRRGLPKAVCMNGTEAAQLSTKSRAEGRAPNPARKACSASSKIRRLSACKQQ [G242A] showed an STK11 functional score of 0.823 ± 0.13.
MEVVDPQQLGMFTEGELMSVGMDTFIHRIDSTEVIYQPRRKRAKLIGKYLMGDLLGEGSYGKVKEVLDSETLCRRAVKILKKKKLRRIPNGEANVKKEIQLLRRLRHKNVIQLVDVLYNEEKQKMYMVMEYCVCGMQEMLDSVPEKRFPVCQAHGYFCQLIDGLEYLNSQGIVHKDIKPGNLLLTTGGTLKISDLGVAEALHPFAADDTCRTSQGSPAFQPPEIANGLDTFSGFKVDIWSAGVTLYNITTGLYPFEGDNIYKLFENIGKGSYAIPGDCGPPLSDLLKGMLEYEPAKRFSIRQIRQHSWFRKKHPPAEAPVPIPPSPDTKDRWRSMTVVPYLEDLHGADEDEDLFDIEDDIIYTQDFTVPGQVPEEEASHNGQRRGLPKAVCMNGTEAAQLSTKSRAEGRAPNPARKACSASSKIRRLSACKQQ [H168N] was tested, and the STK11 functional score was 0.275 ± 0.12.
In the case of MEVVDPQQLGMFTEGELMSVGMDTFIHRIDSTEVIYQPRRKRAKLIGKYLMGDLLGEGSYGKVKEVLDSETLCRRAVKILKKKKLRRIPNGEANVKKEIQLLRRLRHKNVIQLVDVLYNEEKQKMYMVMEYCVCGMQEMLDSVPEKRFPVCQAHGYFCQLIDGLEYLHSQGIVHKDIKPGNLLLTTGGTLKISDLGVAEALHPFAADDTCRTSQGSPAFQPPEIANGLDTFSGFKVDIWSAGVTLYNITTGLYPFEGDNIYKLYENIGKGSYAIPGDCGPPLSDLLKGMLEYEPAKRFSIRQIRQHSWFRKKHPPAEAPVPIPPSPDTKDRWRSMTVVPYLEDLHGADEDEDLFDIEDDIIYTQDFTVPGQVPEEEASHNGQRRGLPKAVCMNGTEAAQLSTKSRAEGRAPNPARKACSASSKIRRLSACKQQ [F264Y], the STK11 functional score is reported as 1.06 ± 0.16.
MEVVDPQQLGMFTEGELMSVGMDTFIHRIDSTEVIYQPRRKRAKLIGKYLMGDLLGEGSYGKVKEVLDSETLCRRAVKILKKKKLRRIPNGEANVKKEIQLLRRLRHKNVIQLVDVLYNEEKQKMYMVMEYCVCGMQEMLDSVPEKRFPVCQAHGYFCQLIDGLEYLHSQGIVHKDIKPGNLLLTTGGTLKISDLGVAEALHPFAADDTCRTSQGSPAFQPPEIANGLDTFSGFKVDIWSAGVTLYNITTGLYPFEGDNIYKLFENIGKGSYAIPGDCGPPLSDLLKGMLEYEPAKRFSIRQIRQHSWFRKKHPPAEAPVPIPPSPDTKDRWRSMTVVPYLEDLHTADEDEDLFDIEDDIIYTQDFTVPGQVPEEEASHNGQRRGLPKAVCMNGTEAAQLSTKSRAEGRAPNPARKACSASSKIRRLSACKQQ [G346T] was tested, and the STK11 functional score was 1.62 ± 0.21.
MEVVDPQQLGMFTEGELMSVGMDTFIHRIDSTEVIYQPRRKRAKLIGKYLMGDLLGEGSYGKVKEVLDSETLCRRAVKILKKKKLRRIPNGEANVKKEIQLLRRLRHKNVIQLVDVLYVEEKQKMYMVMEYCVCGMQEMLDSVPEKRFPVCQAHGYFCQLIDGLEYLHSQGIVHKDIKPGNLLLTTGGTLKISDLGVAEALHPFAADDTCRTSQGSPAFQPPEIANGLDTFSGFKVDIWSAGVTLYNITTGLYPFEGDNIYKLFENIGKGSYAIPGDCGPPLSDLLKGMLEYEPAKRFSIRQIRQHSWFRKKHPPAEAPVPIPPSPDTKDRWRSMTVVPYLEDLHGADEDEDLFDIEDDIIYTQDFTVPGQVPEEEASHNGQRRGLPKAVCMNGTEAAQLSTKSRAEGRAPNPARKACSASSKIRRLSACKQQ [N119V] was tested, and the STK11 functional score was 0.707 ± 0.14.
MEVVDPQQLGMFTEGELMSVGMDTFIHRIDSTEVIYQPRRKRAKLIGKYLMGDLLGEGSYGKVKEVLDSETLCRRAVKILKKKKLRRIPNGEANVKKEIQLLRRLRHKNVIQLVDVLYYEEKQKMYMVMEYCVCGMQEMLDSVPEKRFPVCQAHGYFCQLIDGLEYLHSQGIVHKDIKPGNLLLTTGGTLKISDLGVAEALHPFAADDTCRTSQGSPAFQPPEIANGLDTFSGFKVDIWSAGVTLYNITTGLYPFEGDNIYKLFENIGKGSYAIPGDCGPPLSDLLKGMLEYEPAKRFSIRQIRQHSWFRKKHPPAEAPVPIPPSPDTKDRWRSMTVVPYLEDLHGADEDEDLFDIEDDIIYTQDFTVPGQVPEEEASHNGQRRGLPKAVCMNGTEAAQLSTKSRAEGRAPNPARKACSASSKIRRLSACKQQ [N119Y] was tested, and the STK11 functional score was 1.12 ± 0.39.
With MEVVDPQQLGMFTEGELMSVGMDTFIHRIDSTEVIYQPRRKRAKLIGKYLMGDLLGEGSYGKVKEVLDSETLCRRAVKILKKKKLRRIPNGEANVKKEIQLLRRLRHKNVIQLVDVLYNEEKQKMYMVMEYCVCGMQEMLDSVPEKRFPVCQAHGYFCQLIDGLEYLHSQGIVHKDIKPGNLLLTTGGTLKISDLGVAEALHPFAADDTCRTSQGSPAFQPPEIANGLDTFSGFKVDIWSAGVTLYNITTGLYPFEGDNIYKLFENIGKGSYAIPGDCGPPLSDLLKGMLEYEPAKRFSIRQIRQHSWFRKKHPPAEAPVPIPPSPDTKDRWRSMTVVPYLEDLHGADEDEDLFDIEDDIIYTQDFTVPIQVPEEEASHNGQRRGLPKAVCMNGTEAAQLSTKSRAEGRAPNPARKACSASSKIRRLSACKQQ [G370I] the STK11 functional score was 1.6 ± 0.29.
